{
  "source": "paper PMC7614769",
  "about": "“Structural basis for Fc receptor recognition of immunoglobulin M” (Nature structural & molecular biology, 2023)",
  "target": "pentameric IgM-Fc core containing Cμ4, Cμ3 and the J chain (human, UniProt P01871 106-433; P01591 23-159, N-linked glycosylation at Asn563)",
  "test": "BLI; FcμR (20 μg/ml) captured on AMC (anti-mouse IgG-Fc capture) biosensors by the anti-FcμR antibody RR-16; full-length or proteolysed IgM 0.08-10 nM in solution; PBS, 0.005% Tween 20, 25 °C; apparent Kd from response against IgM concentration, 1:1 binding model",
  "details": "both partners purified",
  "data": [
    {"binder": "human FcμR ectodomain (receptor, UniProt O60667 17-251, looked up, FcμR, human, ectodomain; Full-length human FcμR has 390 aa; 251 aa are extracellular: 17-aa signal peptide, 107-aa Ig-like domain, 127-aa stalk; Only the Ig-like domain is resolved in the cryo-EM maps; also called TOSO; FAIM3; source: bought: R&D, Catalog 9494-MU-050, lyophilized, suspended in PBS) LRILPEVKVEGELGGSVTIKCPLPEMHVRIYLCREMAGSGTCGTVVSTTNFIKAEYKGRVTLKQYPRKNLFLVEVTQLTESDSGVYACGAGMNTDRGKTQKVTLNVHSEYEPSWEEQPMPETPKWFHLPYLFQMPAYASSSKFVTRVTTPAQRGKVPPVHHSSPTTQITHRPRVSRASSVAGDKPRTFLPSTTASKISALEGLLKPQTPSYNHHTRLHRQRALDYGSQSGREGQG", "values": [
      {"measurement": "Kd", "result": "700 ± 100", "unit": "pM"}
    ]}
  ]
}
